Laboratory results taken from US20250263440A1, “CD38-BINDING AGENTS AND USES THEREOF” (PeptiDream Inc., priority 2019, published 2025).
Where two headings read alike, the source gives them in different places. Positions of bridges follow the written chain, without caps; N, C: chain ends. Non-standard residues stand in square brackets, D forms with d. Residues, ends and D or L forms follow the SMILES beside them. No end group written: not given here. Ala(2-NH2-4-pyridyl) = Nc1cc(C[C@H](N)C(=O)O)ccn1; Bip = N[C@@H](Cc1ccc(-c2ccccc2)cc1)C(=O)O; Arg(Me2a) = CN(C)C(=N)NCCC[C@H](N)C(=O)O; Nle(6-Ph) = N[C@@H](CCCCc1ccccc1)C(=O)O; Arg(Me2s) = CN=C(NC)NCCC[C@H](N)C(=O)O; Arg(Me) = CNC(=N)NCCC[C@H](N)C(=O)O; NMeF = CN[C@@H](Cc1ccccc1)C(=O)O; hCit = NC(=O)NCCCC[C@H](N)C(=O)O; Ahp(2) = CCCCC[C@H](N)C(=O)O

What was measured:
His-tagged CD38 = His-tagged CD38 (Homo sapiens, UniProt P28907); test: SPR assay (Biacore S200, Sensor Chip NTA, single-cycle kinetics) of SEQ ID NO.1 variants against His-tagged CD38; format: binding; settings: for Kd: SPR Biacore S200, His-tagged CD38, calculated from ka and kd; for kon / koff: SPR Biacore S200, NTA chip, His-tagged CD38; for kon: read-out: Ka (association rate constant); for koff: read-out: Kd (dissociation rate constant)
Protocol: SPR assay was performed using Biacore S200 (Cytiva: Former GE Healthcare).
After the equilibration of Series S Sensor Chip NTA (produced by Cytiva: Former GE Healthcare) with Running Buffer (10 mM HEPES pH7.4, 150 mM NaCl, 0.05% Tween 20), followed by injection of 350 mM EDTA at a flow rate of 10 L/min for 60 seconds and […] NiCl2 at a flow rate of 10 L/min for 60 seconds, then 3 mM EDTA at a flow rate of 10 L/min for 120 seconds, sequently, to wash the sensor chip.
EDC/NHS mixture was injected at a flow rate of […] for 7 minutes to thereby activate the functional groups on sensor chip. His-tagged CD38 in Running Buffer (10 mM HEPES pH7.4, 150 mM NaCl, 0.05% Tween 20) was injected immobilized to at a flow rate of […]. For 7 minutes to immobilize the CD38 on the substrate surfaces of the sensor chip. Then Ethanolamine was injected at a flow rate of […] for 7 minutes.
1.0 M Ethanolamine(aq.) was injected at a flow rate of 10 L/min for 420 seconds for capping. 10 mM peptides (which were synthesised described above) in DMSO were diluted to obtain 10 uM with Running Buffer, and prepared 100 nM, 50 nM, 25 nM, 10 nM, 5 nM of each peptide's solutions (Peptide Samples).
Using these Peptide Samples, kinetics of peptides against His-tagged CD38 was measured. The method adopted for sample measurement was a single-cycle kinetics method. The analysis was conducted using the evaluation software 1.1 provided with Biacore S200. A DMSO correction curve obtained by solvent correction measurements was applied for the analysis. Kinetics fitting was done on the difference data obtained by subtracting the baseline data from sample measurement data.
KD values were calculated based on the association rate constant (ka) and dissociation rate constant (kd).

[1] = target: T1, Recombinant human CD38 protein (R&D Systems) (human, UniProt P28907 43-300); test: ELISA
[2] = target: T1, Recombinant human CD38 protein (R&D …); test: ELISA; remark: listed apart in the source

Row | Binding Assay (larger values indicate stronger binding) [1] | Binding Assay (larger values indicate stronger binding) [2] | Molecule | other results
1 | 0.1 |  | {CH2CO}-ALH[NMeF]VLP[Bip]VAVC (thioether N-12) [I-2 analogue with Ala at position 10 (A L H MeF V L P Bph V A V C)] | 
2 | 0.09 |  | {CH2CO}-ALH[NMeF]VAP[Bip]VWVC (thioether N-12) [I-2 analogue with Ala at position 6 (A L H MeF V A P Bph V W V C)] | 
3 | 0.11 |  | {CH2CO}-ALH[NMeF]VLA[Bip]VWVC (thioether N-12) [I-2 analogue with Ala at position 7 (A L H MeF V L A Bph V W V C)] | 
4 |  | 0.09 | {CH2CO}-AR[Ahp(2)]YHDGVLA[Ahp(2)]DC (thioether N-13) [I-1 analogue with Ala at position 10 (A R Ahp Y H D G V L A Ahp D C)] | 
5 | 0.37 |  | {CH2CO}-ALA[NMeF]VLP[Bip]VWVC (thioether N-12) [I-2 analogue with Ala at position 3 (A L A MeF V L P Bph V W V C)] | 
6 |  | 0.93 | {CH2CO}-AR[Ahp(2)]YHAGVL[Bip][Ahp(2)]DC (thioether N-13) [I-1 analogue with Ala at position 6 (A R Ahp Y H A G V L Bph Ahp D C)] | 
7 |  | 0.08 | {CH2CO}-AR[Ahp(2)]YHDGVA[Bip][Ahp(2)]DC (thioether N-13) [I-1 analogue with Ala at position 9 (A R Ahp Y H D G V A Bph Ahp D C)] | 
8 |  | 1.79 | {CH2CO}-AR[Ahp(2)]YHDGVL[Bip][Ahp(2)]AC (thioether N-13) [I-1 analogue with Ala at position 12 (A R Ahp Y H D G V L Bph Ahp A C)] | 
9 |  | 0.3 | {CH2CO}-AR[Ahp(2)]YHDGAL[Bip][Ahp(2)]DC (thioether N-13) [I-1 analogue with Ala at position 8 (A R Ahp Y H D G A L Bph Ahp D C)] | 
10 |  | 0.11 | {CH2CO}-AR[Ahp(2)]AHDGVL[Bip][Ahp(2)]DC (thioether N-13) [I-1 analogue with Ala at position 4 (A R Ahp A H D G V L Bph Ahp D C)] | 
11 |  | 0.28 | {CH2CO}-AR[Ahp(2)]YADGVL[Bip][Ahp(2)]DC (thioether N-13) [I-1 analogue with Ala at position 5 (A R Ahp Y A D G V L Bpb Ahp D C)] | 

The remaining lines, values behind:

Row | Molecule | Binding Assay (larger values indicate stronger binding) [1] | Binding Assay (larger values indicate stronger binding) [2] | other results
12 | CCCCC[C@@H]1NC(=O)[C@H](CCCNC(=N)NC)NC(=O)[C@H](C)NC(=O)CSC[C@@H](C(N)=O)NC(=O)[C@H](CC(=O)O)NC(=O)[C@H](CCCCc2ccccc2)NC(=O)[C@H](Cc2ccc(-c3ccccc3)cc2)NC(=O)[C@H](CC(C)C)NC(=O)[C@H](C(C)C)NC(=O)[C@H](CCC(=O)O)NC(=O)[C@H](CC(=O)O)NC(=O)[C@H](Cc2c[nH]cn2)NC(=O)[C@H](Cc2ccc(O)cc2)NC1=O [compound 30] ({CH2CO}-A[Arg(Me)][Ahp(2)]YHDEVL[Bip][Nle(6-Ph)]DC-NH2; thioether N-13) |  |  | Kd (His-tagged CD38): 3.1 nM; kon (His-tagged CD38): 350000 M⁻¹ s⁻¹; koff (His-tagged CD38): 0.0011 s⁻¹
13 | CCCCC[C@@H]1NC(=O)[C@H](CCCNC(=NC)NC)NC(=O)[C@H](C)NC(=O)CSC[C@@H](C(N)=O)NC(=O)[C@H](CC(=O)O)NC(=O)[C@H](CCCCc2ccccc2)NC(=O)[C@H](Cc2ccc(-c3ccccc3)cc2)NC(=O)[C@H](CC(C)C)NC(=O)[C@H](C(C)C)NC(=O)[C@H](CCC(=O)O)NC(=O)[C@H](CC(=O)O)NC(=O)[C@H](Cc2c[nH]cn2)NC(=O)[C@H](Cc2ccc(O)cc2)NC1=O [compound 31] ({CH2CO}-A[Arg(Me2s)][Ahp(2)]YHDEVL[Bip][Nle(6-Ph)]DC-NH2; thioether N-13) |  |  | Kd (His-tagged CD38): 2.6 nM; kon (His-tagged CD38): 480000 M⁻¹ s⁻¹; koff (His-tagged CD38): 0.0012 s⁻¹
14 | CCCCC[C@@H]1NC(=O)[C@H](CCCNC(=N)N(C)C)NC(=O)[C@H](C)NC(=O)CSC[C@@H](C(N)=O)NC(=O)[C@H](CC(=O)O)NC(=O)[C@H](CCCCc2ccccc2)NC(=O)[C@H](Cc2ccc(-c3ccccc3)cc2)NC(=O)[C@H](CC(C)C)NC(=O)[C@H](C(C)C)NC(=O)[C@H](CCC(=O)O)NC(=O)[C@H](CC(=O)O)NC(=O)[C@H](Cc2c[nH]cn2)NC(=O)[C@H](Cc2ccc(O)cc2)NC1=O [compound 32] ({CH2CO}-A[Arg(Me2a)][Ahp(2)]YHDEVL[Bip][Nle(6-Ph)]DC-NH2; thioether N-13) |  |  | Kd (His-tagged CD38): 5.6 nM; kon (His-tagged CD38): 250000 M⁻¹ s⁻¹; koff (His-tagged CD38): 0.0014 s⁻¹
15 | CCCCC[C@@H]1NC(=O)[C@H](CCCCNC(N)=O)NC(=O)[C@H](C)NC(=O)CSC[C@@H](C(N)=O)NC(=O)[C@H](CC(=O)O)NC(=O)[C@H](CCCCc2ccccc2)NC(=O)[C@H](Cc2ccc(-c3ccccc3)cc2)NC(=O)[C@H](CC(C)C)NC(=O)[C@H](C(C)C)NC(=O)[C@H](CCC(=O)O)NC(=O)[C@H](CC(=O)O)NC(=O)[C@H](Cc2c[nH]cn2)NC(=O)[C@H](Cc2ccc(O)cc2)NC1=O [compound 33] ({CH2CO}-A[hCit][Ahp(2)]YHDEVL[Bip][Nle(6-Ph)]DC-NH2; thioether N-13) |  |  | Kd (His-tagged CD38): 6.7 nM; kon (His-tagged CD38): 220000 M⁻¹ s⁻¹; koff (His-tagged CD38): 0.0015 s⁻¹
16 | CCCCC[C@@H]1NC(=O)[C@H](Cc2ccnc(N)c2)NC(=O)[C@H](C)NC(=O)CSC[C@@H](C(N)=O)NC(=O)[C@H](CC(=O)O)NC(=O)[C@H](CCCCc2ccccc2)NC(=O)[C@H](Cc2ccc(-c3ccccc3)cc2)NC(=O)[C@H](CC(C)C)NC(=O)[C@H](C(C)C)NC(=O)[C@H](CCC(=O)O)NC(=O)[C@H](CC(=O)O)NC(=O)[C@H](Cc2c[nH]cn2)NC(=O)[C@H](Cc2ccc(O)cc2)NC1=O [compound 34] ({CH2CO}-A[Ala(2-NH2-4-pyridyl)][Ahp(2)]YHDEVL[Bip][Nle(6-Ph)]DC-NH2; thioether N-13) |  |  | Kd (His-tagged CD38): 10.4 nM; kon (His-tagged CD38): 120000 M⁻¹ s⁻¹; koff (His-tagged CD38): 0.0012 s⁻¹
17 | {CH2CO}-ALH[NMeF]VLPAVWVC (thioether N-12; also: structure as I-2) [I-2 analogue with Ala at position 8 (A L H MeF V L P A V W V C)] | 0.09 |  | 
18 | {CH2CO}-ARAYHDGVL[Bip][Ahp(2)]DC (thioether N-13) [I-1 analogue with Ala at position 3 (A R A Y H D G V L Bph Ahp D C)] |  | 0.11 | 
19 | {CH2CO}-ALHAVLP[Bip]VWVC (thioether N-12) [I-2 analogue with Ala at position 4 (A L H A V L P Bph V W V C)] | 0.1 |  | 
20 | {CH2CO}-AAH[NMeF]VLP[Bip]VWVC (thioether N-12) [I-2 analogue with Ala at position 2 (A A H MeF V L P Bph V W V C)] | 0.84 |  | 
21 | {CH2CO}-AR[Ahp(2)]YHDGVL[Bip]ADC (thioether N-13) [I-1 analogue with Ala at position 11 (A R Ahp Y H D G V L Bph A D C)] |  | 0.2 | 
22 | {CH2CO}-ALH[NMeF]ALP[Bip]VWVC (thioether N-12) [I-2 analogue with Ala at position 5 (A L H MeF A L P Bph V W V C)] | 0.47 |  | 
23 | {CH2CO}-AA[Ahp(2)]YHDGVL[Bip][Ahp(2)]DC (thioether N-13) [I-1 analogue with Ala at position 2 (A A Ahp Y H D G V L Bph Ahp D C)] |  | 0.6 | 
24 | {CH2CO}-AR[Ahp(2)]YHDAVL[Bip][Ahp(2)]DC (thioether N-13) [I-1 analogue with Ala at position 7 (A R Ahp Y H D A V L Bpb Ahp D C)] |  | 1.49 | 
25 | {CH2CO}-ALH[NMeF]VLP[Bip]AWVC (thioether N-12) [I-2 analogue with Ala at position 9 (A L H MeF V L P Bph A W V C)] | 0.12 |  | 
